Data: IntAct's records for PubMed 25737013

B1: Splicing factor 3B subunit 2 (Homo sapiens), Q13435 (parent)
chain: MATEHPEPPKAELQLPPPPPPGHYGAWAAQELQAKLAEIGAPIQGNREELVERLQSYTRQTGIVLNRPVLRGEDGDKAAPPPMSAQLPGIPMPPPPLGLPPLQPPPPPPPPPPGLGLGFPMAHPPNLGPPPPLRVGEPVALSEEERLKLAQQQAALLMQQEERAKQQGDHSLKEHELLEQQKRAAVLLEQERQQEIAKMGTPVPRPPQDMGQIGVRTPLGPRVAAPVGPVGPTPTVLPMGAPVPRPRGPPPPPGDENREMDDPSVGPKIPQALEKILQLKESRQEEMNSQQEEEEMETDARSSLGQSASETEEDTVSVSKKEKNRKRRNRKKKKKPQRVRGVSSESSGDREKDSTRSRGSDSPAADVEIEYVTEEPEIYEPNFIFFKRIFEAFKLTDDVKKEKEKEPEKLDKLENSAAPKKKGFEEEHKDSDDDSSDDEQEKKPEAPKLSKKKLRRMNRFTVAELKQLVARPDVVEMHDVTAQDPKLLVHLKATRNSVPVPRHWCFKRKYLQGKRGIEKPPFELPDFIKRTGIQEMREALQEKEEQKTMKSKMREKVRPKMGKIDIDYQKLHDAFFKWQTKPKLTIHGDLYYEGKEFETRLKEKKPGDLSDELRISLGMPVGPNAHKVPPPWLIAMQRYGPPPSYPNLKIPGLNSPIPESCSFGYHAGGWGKPPVDETGKPLYGDVFGTNAAEFQTKTEEEEIDRTPWGELEPSDEESSEEEEEEESDEDKPDETGFITPADSGLITPGGFSSVPAGMETPELIELRKKKIEEAMDGSETPQLFTVLPEKRTATVGGAMMGSTHIYDMSTVMSRKGPAPELQGVEVALAPEELELDPMAMTQKYEEHVREQQAQVEKEDFSDMVAEHAAKQKQKKRKAQPQDSRGGSKKYKEFKF
B2: Splicing factor 3B subunit 2 (Homo sapiens), Q13435 (parent)
chain: B1 chain
partner: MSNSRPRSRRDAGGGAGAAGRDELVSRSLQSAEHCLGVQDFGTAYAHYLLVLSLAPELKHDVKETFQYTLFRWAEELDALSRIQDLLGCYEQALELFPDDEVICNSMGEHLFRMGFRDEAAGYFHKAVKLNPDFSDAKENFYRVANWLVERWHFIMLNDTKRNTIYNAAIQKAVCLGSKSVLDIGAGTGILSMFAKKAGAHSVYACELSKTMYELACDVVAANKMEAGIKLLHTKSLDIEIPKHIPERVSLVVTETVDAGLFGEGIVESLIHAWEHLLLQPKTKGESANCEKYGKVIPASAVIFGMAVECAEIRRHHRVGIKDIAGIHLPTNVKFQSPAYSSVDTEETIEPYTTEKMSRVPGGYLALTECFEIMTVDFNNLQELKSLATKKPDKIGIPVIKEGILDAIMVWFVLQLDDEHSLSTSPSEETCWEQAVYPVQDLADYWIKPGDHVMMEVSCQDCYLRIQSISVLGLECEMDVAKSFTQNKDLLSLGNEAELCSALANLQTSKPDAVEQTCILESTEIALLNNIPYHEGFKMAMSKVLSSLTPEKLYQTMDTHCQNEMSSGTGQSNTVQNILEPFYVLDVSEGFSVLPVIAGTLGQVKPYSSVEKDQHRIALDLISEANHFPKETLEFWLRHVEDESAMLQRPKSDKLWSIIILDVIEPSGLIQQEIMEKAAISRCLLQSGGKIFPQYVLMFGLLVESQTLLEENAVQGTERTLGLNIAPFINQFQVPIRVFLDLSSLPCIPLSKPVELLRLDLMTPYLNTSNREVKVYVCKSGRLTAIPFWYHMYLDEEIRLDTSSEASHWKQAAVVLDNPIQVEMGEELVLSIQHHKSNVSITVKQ
B3: Protein arginine N-methyltransferase 9 (Homo sapiens), Q6P2P2 (parent)
chain: B2 partner

Variants of: B1
Settings: with smn_human SMN1, Q16637
smn_human SMN1, Q16637, sequence (Q16637 whole entry): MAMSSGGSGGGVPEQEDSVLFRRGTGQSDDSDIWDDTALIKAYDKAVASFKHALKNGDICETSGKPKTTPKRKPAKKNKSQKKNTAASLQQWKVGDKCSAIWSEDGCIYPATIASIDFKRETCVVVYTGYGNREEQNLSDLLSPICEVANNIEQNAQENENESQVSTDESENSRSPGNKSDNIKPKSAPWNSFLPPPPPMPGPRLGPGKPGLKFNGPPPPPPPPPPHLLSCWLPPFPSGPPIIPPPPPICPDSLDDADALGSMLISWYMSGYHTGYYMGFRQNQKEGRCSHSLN

Row | Variant | effect of a mutation on the interaction
1 | R508K | disrupting interaction strength

Variants of: B2
Settings: with anm9_human PRMT9, Q6P2P2

Row | Variant | effect of a mutation on the interaction
2 | R537K | with no effect
3 | R515K | with no effect
4 | R502K | with no effect
5 | R530K | with no effect
6 | R495K | with no effect
7 | R471K | with no effect
8 | R455K;R456K;R459K | with no effect

Variants of: B2
Settings: with anm9_human PRMT9, Q6P2P2
Remark: another data set of the same source

Row | Variant | effect of a mutation on the interaction
9 | R508K | with no effect

Variants of: B3
Settings: with sf3b2_human SF3B2, Q13435

Row | Variant | effect of a mutation on the interaction
10 | L182A;D183A;I184A;G185A | disrupting interaction strength
